Source: article PMC4731787, “Structural basis for the recognition of two consecutive mutually interacting DPF motifs by the SGIP1 μ homology domain” (Scientific Reports, 2016)
Values belong to the binder of their own block, whether it stands above or below them.

B1: FCHo1 µ homology domain (µHD), residues 623 to 889 (domain or fragment, human, UniProt O14526-1 623-889, looked up)
chain: QDALPIATAFTEYVHAYFRGHSPSCLARVTGELTMTFPAGIVRVFSGTPPPPVLSFRLVHTTAIEHFQPNADLLFSDPSQSDPETKDFWLNMAALTEALQRQAEQNPTASYYNVVLLRYQFSRPGPQSVPLQLSAHWQCGATLTQVSVEYGYRPGATAVPTPLTNVQILLPVGEPVTNVRLQPAATWNLEEKRLTWRLPDVSEAGGSGRLSASWEPLSGPSTPSPVAAQFTSEGTTLSGVDLELVGSGYRMSLVKRRFATGMYLVSC
notes: also called FCHo1 µHD; human FCHo1 µHD (aa623–889); source: E. coli, expressed and purified in the same manner as the SGIP1 µHD
B2: Eps15-618–654 (domain or fragment, human)
chain: GPLGSYDFFQSDPFVGSDPFKDDPFGKIDPFGGDPFKGSDPFA
notes: source: E. coli, expressed and purified in the same manner as the SGIP1 µHD

Tests used:
Details in all cases: both partners purified
[1] = target: B2; test: ITC; Eps15 fragment in the sample cell, titrated with the SGIP1 or FCHo1 µHD; 50 mM Tris-HCl (pH 8.0), 50 mM NaCl, 25 °C; VP-ITC; two data sets fitted globally (NITPIC, SEDPHAT); single-site or two-site model as named in the quantity
[2] = target: B1; test: ITC; µHD, µHD mutant or α-adaptin appendage domain in the sample cell, titrated with the Eps15 fragment or peptide; 50 mM Tris-HCl (pH 8.0), 50 mM NaCl, 25 °C; VP-ITC; two data sets fitted globally (NITPIC, SEDPHAT); single-site model
[3] = target: B1; test: ITC; Eps15 fragment in the sample cell, titrated with the SGIP1 or FCHo1 µHD; 50 mM Tris-HCl (pH 8.0), 50 mM NaCl, 25 °C; VP-ITC; two data sets fitted globally (NITPIC, SEDPHAT); single-site or two-site model as named in the quantity
[4] = target: T1, FCHo1 μ homology domain (residues 623 to 889) (human, UniProt O14526-1 623-889); test: ITC; VP-ITC, 25 °C, 50 mM Tris-HCl pH 8.0, 50 mM NaCl; for the majority the μHD (SGIP1, its mutants or FCHo1) in the cell, titrated with Eps15 fragments or peptides, for others the reverse (Supplementary Table 2); repeated twice, global fit with SEDPHAT, single-site or two-site model
T1 construct: FCHo1 (FCH domain only 1), human, μ homology domain, residues 623-889; also called FCHo1 μHD; source: E. coli, purified in the same manner as for the SGIP1 μHD
T1 sequence (looked up): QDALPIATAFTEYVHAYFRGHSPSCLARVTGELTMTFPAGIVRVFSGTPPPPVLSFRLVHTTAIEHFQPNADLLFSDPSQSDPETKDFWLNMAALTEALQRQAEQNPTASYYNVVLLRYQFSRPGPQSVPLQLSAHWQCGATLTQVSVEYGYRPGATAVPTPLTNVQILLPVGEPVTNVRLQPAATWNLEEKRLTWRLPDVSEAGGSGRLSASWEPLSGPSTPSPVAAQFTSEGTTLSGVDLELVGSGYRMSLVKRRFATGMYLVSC

[5] = target: T2, SGIP1 μ homology domain (residues 552 to 828) (human, UniProt Q9BQI5-1 552-828); test: as above
T2 construct: A SeMet-substituted form (E. coli B834(DE3)) was used only for the structure of the domain alone; also called SGIP1 μHD; μHD; source: E. coli BL21-Gold (DE3) or Rosetta2, purified (Glutathione Sepharose, 3C protease cleavage on the column, Superdex 200)
T2 sequence (looked up): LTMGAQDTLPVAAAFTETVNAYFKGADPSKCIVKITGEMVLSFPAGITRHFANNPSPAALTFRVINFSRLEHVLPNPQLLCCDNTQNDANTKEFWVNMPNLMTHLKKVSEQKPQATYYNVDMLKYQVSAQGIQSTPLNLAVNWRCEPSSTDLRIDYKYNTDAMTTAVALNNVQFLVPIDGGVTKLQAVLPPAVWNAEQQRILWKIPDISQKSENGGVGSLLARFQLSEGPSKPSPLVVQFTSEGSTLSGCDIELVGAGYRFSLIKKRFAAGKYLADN

Binder: B1
stoichiometry N [1]: 0.7

Binder: B2
Kd [2]: 270 nM | stoichiometry N [2]: 0.59 | Kd [3]: 190 nM

binding result [4]: binds | Kd of the high-affinity site (two-site model) [5]: ~65 nM
B3: Eps15-618–654 (domain or fragment, human, UniProt P42566-1 618-654, looked up)
chain: DFFQSDPFVGSDPFKDDPFGKIDPFGGDPFKGSDPFA
notes: also called 37-residue region containing six consecutive DPF motifs; source: E. coli, purified in the same manner as for the SGIP1 μHD
